Experiment: yeast display, Sf9 membrane polyspecificity reagent, FACS + sequencing; frameworks hold sequencing errors
In short: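 Using colony PCR, genes from sorted yeast display clones were amplified, then sequenced on MiSeq at 2 × 250 and filtered by CDR length. The clones had been stained with 10% biotinylated, detergent-solubilized Sf9 membrane reagent for 1 hour at 4 °C and sorted by FACS into low and high (top ~1%) gates on anti-HA and streptavidin fluorescence. Polyreactivity labels come from the gate of origin.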

**Q.** For “QVQLVESGGGLVQAGGSLRLSCAASGFIFYQYAKGWYRQAPGKERELVATISFRGGRTYYADSVKGRFTITRDTAKNTVYLQMNSLKPDETAVYYCNAKRVSSRFYKWDYYWGQGTQVTVSS”, which “polyreactivity (PSR sort gate)” value is on record?
**A.** The value was “high polyreactivity”.

**Q.** Which “polyreactivity (PSR sort gate)” value does the source give for “QVQLVESGGGLVQAGGSLRLSCAASGFIFYRNTMGWYRQAPGKEREFFAAITRSGGITRYADSVKGRFTISRDNAKNTVYLQMNSLKPEDTAVYYCAARRWIADPGRIMDYWGQGTQVTVSS” here?
**A.** The value was “high polyreactivity”.

**Q.** For “QVQLVESGGGLVQAGGSLRLSCAASGFIFYRYAIGWYRQEPGKERELVAAITRSGRSTYYADSVKGRFTISRDNAKNTVYLQMNSLKAEDTAVYYCAVFGSYWWRGLSEDYWGQGTQVTVSS”, which “polyreactivity (PSR sort gate)” value is on record?
**A.** Its value is “high polyreactivity”.

**Q.** For “QVQLVESGGGLVQAGGSLRLSCAASGFIFYRYAMGWYRQAPGKERELVAAISWSGGTTYYADSVKGRFTISRDNAKNTVYLQMNSLKPEDTAVYYCAARSVPSPERGFYYWGQGTQVTVSS”, which “polyreactivity (PSR sort gate)” value is on record?
**A.** Its value is “high polyreactivity”.

**Q.** For “QVQLVESGGGLVQAGGSLRLSCAASGFIFYRYAMGWYRQAPGKERELVAAISYSGGSTYYADSVKGRFTISRDNAKNTVYLQMISLKPEDTAVYYCAAGSKYRYDYWGQGTQVTVSS”, which “polyreactivity (PSR sort gate)” value is on record?
**A.** Its value is “high polyreactivity”.

**Q.** For “QVQLVESGGGLVQAGGSLRLSCAASGFIFYRYAMGWYRQAPGKERELVAAITGGGSTYYADSVKGRFTISRDNAKNTVYLQMNSLKPEDTAVYYCNAVTYGWTAYDKGKRYDYWGQGTQVTVSS”, which “polyreactivity (PSR sort gate)” value is on record?
**A.** The value was “high polyreactivity”.

**Q.** For “QVQLVESGGGLVQAGGSLRLSCAASGFIFYRYAMGWYRQAPGKERELVAAITSDGSTYYADSVKGRFTISRDNAKNTVYLQMNSLKPEDTAVYYCNAERWGNSVGNYWGQGTQVTVSS”, which “polyreactivity (PSR sort gate)” value is on record?
**A.** Its value is “high polyreactivity”.

**Q.** Which “polyreactivity (PSR sort gate)” value does the source give for “QVQLVESGGGLVQAGGSLRLSCAASGFIFYRYARGWYRQAPGKERELVAVISRGGNTYYADSVKGRFTISRDNAKNTVYLQMNSLKPEDTAVYYCNKRLRDSYRLYYYWGQGTQVTVSS” here?
**A.** Its value is “high polyreactivity”.

**Q.** Which “polyreactivity (PSR sort gate)” value does the source give for “QVQLVESGGGLVQAGGSLRLSCAASGFIFYRYTLGWSRQAPGKERELVAAITSGGSTYYADSVKGRFTISRDNAKNTVYLQMNSLKPEDSAVYYCAAAYQRWFNRRDYWGQGTQVTVSS” here?
**A.** The value was “high polyreactivity”.

**Q.** For “QVQLVESGGGLVQAGGSLRLSCAASGFIFYSNAMGWYRPAPGKERELVAAISWGGGRTYYADSVKGRFTISRDNAKNTVYLQMNSLKPEDTAVYYCAAAGYHSGKGGGYWGQGTQVTVSS”, which “polyreactivity (PSR sort gate)” value is on record?
**A.** Its value is “high polyreactivity”.

**Q.** Which “polyreactivity (PSR sort gate)” value does the source give for “QVQLVESGGGLVQAGGSLRLSCAASGFIFYSYAMGWSRQAPGKERELVAAISSTGTSTYYADSVKGRFTISRDNAKNTVYLQMNSLKPEDTAVYYCNAGYAFDPDETYDYWGQGTQVTVSS” here?
**A.** Its value is “low polyreactivity”.

**Q.** With “QVQLVESGGGLVQAGGSLRLSCAASGFIFYSYAMGWYRQAPGKEREFVAAISRAGSTNYADSVKGRFTISRDNAKNTVYLQMNSLIPEDTAVYYCNKGYHSWSRLSQFGWSYDYWGQGTQVTVSS” as the sequence, how does the “polyreactivity (PSR sort gate)” value read?
**A.** The value was “high polyreactivity”.

**Q.** For “QVQLVESGGGLVQAGGSLRLSCAASGFIFYSYAMGWYRQAPGKEREFVASICGGTGSTYYADSVKGRFTISRDNAKNTVYLQMNSLIPEDTAVYYCNARIVHSFRYDYWGQGTQVTVSS”, which “polyreactivity (PSR sort gate)” value is on record?
**A.** The value was “low polyreactivity”.

**Q.** For “QVQLVESGGGLVQAGGSLRLSCAASGFIFYSYAMGWYRQAPGKERELVAAISGSGGSTYYADSVKGRFTISRDNAKNTVYLQMNSLKPEDTAVYYCAAALTFRMDYWGQGTQVTVSS”, which “polyreactivity (PSR sort gate)” value is on record?
**A.** Its value is “high polyreactivity”.

**Q.** For “QVQLVESGGGLVQAGGSLRLSCAASGFIFYSYAMGWYRQAPGKERELVAAISWSGGRTYYADSVKGRFTISRDNAKNTVYLQMNSLKPEDTAVYYCNADDYSFSFTVPYYIEYVYWGQGTQVTVSS”, which “polyreactivity (PSR sort gate)” value is on record?
**A.** The value was “high polyreactivity”.

**Q.** For “QVQLVESGGGLVQAGGSLRLSCAASGFIFYSYDMGWYRQAPGKERELVAAIDSRGVNTYYADSVKGRFTISRDNAKNTVYLQMNILKPEDTAVYYCNVDAITWWDWEDFDYWGQGTQVTVSS”, which “polyreactivity (PSR sort gate)” value is on record?
**A.** The value was “low polyreactivity”.

**Q.** With “QVQLVESGGGLVQAGGSLRLSCAASGFIFYTNAMGWYRQAPGKERELVAAISRGGTTYYADSVKGRFTISRDNAKNTVYLQMNSLKPEDTAVYYCAKAWPDHWYSRYDYWGQGTQVTVSS” as the sequence, how does the “polyreactivity (PSR sort gate)” value read?
**A.** The value was “low polyreactivity”.

**Q.** For “QVQLVESGGGLVQAGGSLRLSCAASGFIFYTYAMGWYRQAPGKERELVAAIRRGGSTYYADSVKGRFTISRDNAKNTVYLQMNSLKPEDTAVYYCNARIPYKAKTNHFGYWGQGTQVTVSS”, which “polyreactivity (PSR sort gate)” value is on record?
**A.** The value was “high polyreactivity”.

**Q.** For “QVQLVESGGGLVQAGGSLRLSCAASGFIFYYNAMGWYRQAPGKERELVAAISTDGGSTYYADSVKGRFTISRDNAKNTVYLQMNSLKPEDTAVYYCAANRYKRYDYWGQGTQVTVSS”, which “polyreactivity (PSR sort gate)” value is on record?
**A.** The value was “low polyreactivity”.

**Q.** For “QVQLVESGGGLVQAGGSLRLSCAASGFIFYYNTMGWYRQAPGKERELVASITWSGDTTYYADSVKGRFTISRDNAKNTVYLQMNSLKPEDTAVYYCAAVHYYPYRRYDYWGQGTQVTVSS”, which “polyreactivity (PSR sort gate)” value is on record?
**A.** Its value is “low polyreactivity”.

**Q.** For “QVQLVESGGGLVQAGGSLRLSCAASGFIFYYYAMGWYRQAPGKEREFVAGISRSGGSTYYADSVKGRFTISRDNAKNTVYLQMNSLKPEDTAVYYCGEFWTYWGYGQYDYWGQGTQVTVSS”, which “polyreactivity (PSR sort gate)” value is on record?
**A.** The value was “low polyreactivity”.

**Q.** With “QVQLVESGGGLVQAGGSLRLSCAASGFIFYYYAMGWYRQAPGKERELVAAISSGGSTYYADSVKGRFTISRDNAKNTVYLQMNSLKPEDTAVYYCNARGFYRGYTYYYWGQGTQVTVSS” as the sequence, how does the “polyreactivity (PSR sort gate)” value read?
**A.** The value was “high polyreactivity”.

**Q.** For “QVQLVESGGGLVQAGGSLRLSCAASGFIFYYYAMGWYRQAPGKERELVAAISSRGGITYYADSVKGRFTISRDNAKNTVYLQMNSLKPEDTAVYYCAVDFRPGYDYWGQGTQVTVSS”, which “polyreactivity (PSR sort gate)” value is on record?
**A.** The value was “low polyreactivity”.

**Q.** Which “polyreactivity (PSR sort gate)” value does the source give for “QVQLVESGGGLVQAGGSLRLSCAASGFIFYYYAMGWYRQAPGKERELVAAISSSGTSTYYADSVKGRFTISRDNAKYTVYLQMNSLKPEDTAVYYCAAYSSHREDYWGQGTQVTVSS” here?
**A.** Its value is “high polyreactivity”.

**Q.** With “QVQLVESGGGLVQAGGSLRLSCAASGFIFYYYAMGWYRQAPGKERELVATITSGGGTYYADSVKGRFTISRDNAKNTVYVQMISLKPEDTAVYYCAKRDLEQSAFLGYDYWGQGTQVTVSS” as the sequence, how does the “polyreactivity (PSR sort gate)” value read?
**A.** The value was “low polyreactivity”.

**Q.** For “QVQLVESGGGLVQAGGSLRLSCAASGFIFYYYAMGWYRQAPGKEREMFAAITQGGGSTYYADSVKGRFTISRDNAKNTVYFQMNSLKPEDTAVYYCAAVKRVYAHCRAFSSDFYYWGQGTQVNVSS”, which “polyreactivity (PSR sort gate)” value is on record?
**A.** Its value is “high polyreactivity”.

**Q.** With “QVQLVESGGGLVQAGGSLRLSCAASGFIFYYYTMGWYRQAPGKERELVAAISSGGSTYYADSVKGRFTISRDNAKNTVYLQMNSLKPEDTAVYYCNKRYPSPEYNYWGQGTQVTVSS” as the sequence, how does the “polyreactivity (PSR sort gate)” value read?
**A.** The value was “high polyreactivity”.

**Q.** With “QVQLVESGGGLVQAGGSLRLSCAASGFIFYYYTMGWYTQAPGKERELVAAISKSGGNTYYADSVKGRFTISRDNAKNTVYLQMNSLKPEVTAVYYCAASRYNTVTYYYSGQGTQVTVSS” as the sequence, how does the “polyreactivity (PSR sort gate)” value read?
**A.** Its value is “high polyreactivity”.

**Q.** For “QVQLVESGGGLVQAGGSLRLSCAASGFIIEVNAMGWYRQAPGKERELVARIDWSGGSTYYADSVKGRFTISRDNAKNTVYLQMNSLKPEDTAVYYCNADWTYADPNEYGYWGQGTQVTVSS”, which “polyreactivity (PSR sort gate)” value is on record?
**A.** Its value is “low polyreactivity”.

**Q.** Which “polyreactivity (PSR sort gate)” value does the source give for “QVQLVESGGGLVQAGGSLRLSCAASGFIIGGNPMGWYRQAPGKVRELVAAITGGGSTYYADSVKGRFTISRENAKNTVYLQMNSLKPEDTAVYYCNAGRVLRLAYNYWGQGTQVTVSS” here?
**A.** Its value is “low polyreactivity”.

**Q.** With “QVQLVESGGGLVQAGGSLRLSCAASGFIIGSYTMGWYRQAHGKERELVASITKRGGSTYYADSVKGRFTISRDNAKNTVYLQMNSLKPEDTSVYYCAATYWFSHRSRYDYWGQGTQVTVSS” as the sequence, how does the “polyreactivity (PSR sort gate)” value read?
**A.** Its value is “high polyreactivity”.

**Q.** With “QVQLVESGGGLVQAGGSLRLSCAASGFIIKFCAMGLYRQAPGKERELVATITFSSGTTYYADSVKGRFTISRDNAKYTVYLQMNSLKPEDTAVYYCAASTLPAWPYDGPAGPRYDYWGQGTQVTVSS” as the sequence, how does the “polyreactivity (PSR sort gate)” value read?
**A.** Its value is “low polyreactivity”.

Reference: the nanobody polyreactivity screen of Harvey et al. (2022)
